Results as given in publication PMC11234212.

Legend:
[1] = RALY ubiquitination western blot
[2] = western blot of RALY protein
[3] = half-life analysis, western blot, Hep3B and Huh7; settings: glycan gained; control: DMSO
[4] = glycan lost, control: RALYKO-WT
[5] = glycan gained, control: untreated / control-transfected cells

B1: RALY: S176A (protein)
parent chain: MSLKLQASNVTNKNDPKSINSRVFIGNLNTALVKKSDVETIFSKYGRVAGCSVHKGYAFVQYSNERHARAAVLGENGRVLAGQTLDINMAGEPKPDRPKGLKRAASAIYSGYIFDYDYYRDDFYDRLFDYRGRLSPVPVPRAVPVKRPRVTVPLVRRVKTNVPVKLFARSTAVTTSSAKIKLKSSELQAIKTELTQIKSNIDALLSRLEQIAAEQKANPDGKKKGDGGGAGGGGGGGGSGGGGSGGGGGGGSSRPPAPQENTTSEAGLPQGEARTRDDGDEEGLLTHSEEELEHSQDTDADDGALQ
With B1 the “other: ubiquitination” value [1, 4] was “increases” and the degradation_or_half_life (CHX chase, western blot; [4]) was “decreases”.

B2: RALY: TMG (protein)
parent chain: B1 parent chain
For B2, the “other: ubiquitination” value ([1]; glycan gained, control: untreated) was “decreases”, the expression_or_secretion ([2]; glycan gained, control: TRIM27-overexpressing cells without TMG) was “increases” and the expression_or_secretion [2, 5] was “increases”. For the same protein, the “degradation_or_half_life, half_life” value [3] was “increases, approximately 40 (Hep3B), 32 (Huh7) vs approximately 16 (Hep3B), 15 (Huh7)”.

B3: RALY: PUG (protein)
parent chain: B1 parent chain
For B3, the expression_or_secretion [2, 5] was “increases” and the “degradation_or_half_life, half_life” value [3] was “increases”.

B4: RALY: TMG or PUG (protein)
parent chain: B1 parent chain
For B4, the degradation_or_half_life (CHX chase, western blot; glycan gained, control: untreated RALYKO-WT) was “increases”.

B5: RALY: OE-OGT (protein)
parent chain: B1 parent chain
In the case of B5, the expression_or_secretion [2, 5] is reported as “increases”.

B6: RALY: siOGT (protein)
parent chain: B1 parent chain
With B6 the expression_or_secretion ([2]; glycan lost, control: untreated / control-transfected cells) was “decreases”.
